According to PMC6048534:
pKd: −log10 of the molar value.

What was measured:
[1] = biological target: CofB (minor pilin of CFA/III without its N-terminal 28 residues; homotrimer) (enterotoxigenic Escherichia coli (ETEC)); assay: AUC
[2] = biological target: CofB (minor pilin of CFA/III without its N-terminal 28 residues; homotrimer) (enterotoxigenic Escherichia coli (ETEC)); assay: ITC

## CofB (minor pilin of CFA/III without its N-terminal 28 residues; homotrimer) (domain or fragment)
[1]
  stoichiometry N: 3

## CofJ (1–24) peptide (synthesized peptide consisting of CofJ residues 1–24)
[2]
  pKd: 5.06

## CofJ (4–16) peptide (synthetic 13-residue peptide comprising CofJ residues 4–16)
[2]
  pKd: 5.32

## CofJ (intact recombinant secreted protein of the CFA/III operon) (natural protein)
[2]
  pKd: 6.85
[1]
  stoichiometry N (CofJ per three CofB molecules): 1
